T1: MBP-TRAK1_(342-431) ^400KR^401 to AA (human, UniProt Q9UPV9 342-431, ^400KR^401 to AA)
T1 sequence: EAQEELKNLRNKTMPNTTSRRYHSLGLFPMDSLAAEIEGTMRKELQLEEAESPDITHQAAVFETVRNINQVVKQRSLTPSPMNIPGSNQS

T2: GCN4-TRAK1_(342-431) ( | human, UniProt Q9UPV9 342-431)
T2 chain: T1 sequence with A59K, A60R

B1: MBP-TRAK1_(342-431) (domain or fragment)
chain: T1 sequence with A59K, A60R
B2: MIRO1_(177-591) (domain or fragment)
chain: EEKEMKPACIKALTRIFKISDQDNDGTLNDAELNFFQRICFNTPLAPQALEDVKNVVRKHISDGVADSGLTLKGFLFLHTLFIQRGRHETTWTVLRRFGYDDDLDLTPEYLFPLLKIPPDCTTELNHHAYLFLQSTFDKHDLDRDCALSPDELKDLFKVFPYIPWGPDVNNTVCTNERGWITYQGFLSQWTLTTYLDVQRCLEYLGYLGYSILTEQESQASAVTVTRDKKIDLQKKQTQRNVFRCNVIGVKNCGKSGVLQALLGRNLMRQKKIREDHKSYYAINTVYVYGQEKYLLLHDISESEFLTEAEIICDVVCLVYDVSNPKSFEYCARIFKQHFMDSRIPCLIVAAKSDLHEVKQEYSISPTDFCRKHKMPPPQAFTCNTADAPSKDIFVKLTTMAMYPHVTQADLKSST

Positions count from the first letter of the chain named. Where “and” joins values, the source holds several entries; their conditions need not be identical. Identical values can stand only once. Like-named read-outs stand apart in the source and are kept apart here.

Test [1] addresses B2. The test can be described thus: ITC. For orientation: In ITC the heat of successive injections is recorded.
Test [2] has as its target T3, MIRO1_(177-591) E208A (human, UniProt Q8IXI2 177-591, E208A). Briefly: ITC; 5 mM EGTA, 1 mM MgCl2, 0.1 uM GTP; experiment 3.
Test [3] has as its target T4, MIRO1_(177-591) E328A (human, UniProt Q8IXI2 177-591, E328A). Described as above.
Test [4] has as its target T3, MIRO1_(177-591) E208A. The test can be described thus: ITC; 5 mM EGTA, 1 mM MgCl2, 0.1 uM GTP; experiment 1.
Test [5] has as its target T4, MIRO1_(177-591) E328A. Described as above.
For test [6], the target named is T3, MIRO1_(177-591) E208A. The test can be described thus: ITC; 5 mM EGTA.
Test [7] addresses T4, MIRO1_(177-591) E328A. The test can be described thus: ITC; 5 mM EGTA.
In test [8] the target is T3, MIRO1_(177-591) E208A. The test can be described thus: ITC; 5 mM EGTA, 1 mM MgCl2, 0.1 uM GTP; experiment 2.
Test [9] has as its target T4, MIRO1_(177-591) E328A. The test is described as above.
For test [10], the target named is T1, MBP-TRAK1_(342-431) ^400KR^401 to AA. Briefly: ITC; 5 mM EGTA, 1 mM MgCl2, 0.1 uM GTP; reverse titration, experiment 2.
Test [11] has the same target. The test can be described thus: ITC; 5 mM EGTA; TRAK1 in syringe.
Test [12] shares this target. Briefly: ITC; 5 mM EGTA, 1 mM MgCl2, 0.1 uM GTP; reverse titration, experiment 1.
The target is the same in test [13]. The test can be described thus: ITC; 5 mM EGTA, 1 mM MgCl2, 0.1 uM GTP; experiment 3.
Test [14] has the same target. The test can be described thus: ITC; 5 mM EGTA, 1 mM MgCl2, 0.1 uM GTP; experiment 1.
Test [15] has the same target. Briefly: ITC; 5 mM EGTA, 1 mM MgCl2, 0.1 uM GTP; experiment 2.
For a further test, the target named is T2, GCN4-TRAK1_(342-431). The test can be described thus: ITC.
The test “MBP-TRAK1_(342-431)” addresses B1. The test can be described thus: ITC.
The target in test [16] is T1, MBP-TRAK1_(342-431) ^400KR^401 to AA. Briefly: ITC; 5 mM EGTA, 1 mM MgCl2, 0.1 uM GTP; reverse titration, experiment 3.
The target is the same in test [17]. The test can be described thus: ITC; 5 mM EGTA; MIRO1 in syringe.
Test [18] addresses B2. Briefly: ITC. The source holds these as a separate data set.
In test [19] the target is B2. The test can be described thus: ITC. The source holds these as a separate data set.

One may read the Kd as the constant that tells how readily two partners part at equilibrium. Higher therefore signals a looser complex.

In the case of B1, the Kd worked out at 10.6 µM with MIRO1_(177-591) [1]; 3.86 µM in the test with MIRO1_(177-591) E208A [2]; 10.3 µM with MIRO1_(177-591) E328A [3]; 8.85 µM with MIRO1_(177-591) E208A [4]; 9.17 µM in the test with MIRO1_(177-591) E328A [5]; 9.09 µM with MIRO1_(177-591) E208A [6]. Further, the dissociation constant Kd was 10.1 µM in the test with MIRO1_(177-591) E328A [7], 9.09 µM with MIRO1_(177-591) E208A [8] and 10.1 µM with MIRO1_(177-591) E328A [9].
Consider B2, for which the equilibrium dissociation constant (Kd) in test [10] stood at 11.3 µM; in test [11] it was 9.62 µM; in test [12], 7.52 µM; in test [13], 3.98 µM; in test [14], 4.39 µM; in test [15], 2.98 µM. Moreover, the Kd with GCN4-TRAK1_(342-431) is 3.52 µM and 9.35 µM; with MBP-TRAK1_(342-431), 5.95 µM and 6.02 µM and 8 µM and 5.38 µM; in [16], 8.55 µM; in [17], 7.52 µM.
PDITHQKRVFETVRNINQVVKQRSLTPSPMNIPGSNQSSAM [TRAK1_(394-434)]: the Kd with MIRO1_(177-591) [18] was 4.39 µM; with MIRO1_(177-591) [19] it was 9.62 µM and 6.1 µM and 5.65 µM.

(Values after PMC10746525 (2023).)
